Laboratory results reported in patent US20260028391A1 (HUMABS BIOMED, published 2026).

B1: MPK18 (antibody, V domains shown)
VH: EVQLVESGGGLVKPGGSLRLSCAASGFTISGYYMIWIRQAPGKGLEWISYISGSSSYTNFGASVKGRFTISRDNGQNTVHLQMTNLRADDTALYYCATEQTPSPGPFDLWGQGTLVTVSS
VL: QSVVTQPPSVSGAPGQRVTISCSGTSSNIGAGYDVHWYQQFPGTSPKLLISRNFNRPSGVPARFSGSKSGSSASLAIAGLQAEDEADYYCQSYDRSLGGWVFGGGTKVTVL
notes: VH and VL only
B2: MPK36-v3 (antibody, V domains shown)
VH: EVQLVESGGGLVKPGGSLRLSCAASFTISGYYMIWIRQAPGKGLEWISYISGSSTYTNYADSVKGRFTISRDNGQNTLYLHMTSLRADDTALYYCATEQTPSPGPFDLWGQGTLVTVSS
VL: QTVVTQPPSVSGAPGQRVTISCSGTSSNIGAGYDVHWYQQFPGTSPKLLIYRNFNRPSGVPDRFSGSKSGSSASLAIAGLQAEDEADYYCQSYDKSLDGWVFGGGTKVTVL
notes: VH and VL only
B3: MPK132-v1 (antibody, V domains shown)
VH: EVQLVESGGGLVKPGGSLRLSCEASGISLSGYYMIWIRQAPGKGLEWISSISSSSNYIDYADSVKGRFTISRHNGQNTLYLQMNSLRVEDTAVYFCATEQTPSPGPFELWGQGILVTVSS
VL: QSVVTQPPSVSGAPGQRVTIFCTGTSSNIGTGYDVHWYQQFPGTSPKLLIYRNTNRPSGVPDRFSGSKSGSSASLAIAGLQAEDEADYYCQSYDRSVSGWVFGGGTKLTVL
notes: VH and VL only
B4: MPK67 (antibody, V domains shown)
VH: EVQLVESGGGLVKPGGSLRLSCAASGFTISGYYMIWIRQAPGKGLEWISYISGSSSYTNYGASVKGRFTISRDNGQNTVHLQMTNLRADDTALYYCATEQTPSPGPFDLWGQGTLVTVSS
VL: QSVLTQPPSVSGAPGQRVTISCSGTSSNIGAGYDVHWYQQFPGTSPKLLISRNFNRPSGVPARFSGSKSGSSASLAIAGLQPEDEADYYCQSYDRSLGGWVFGGGTKVTVL
notes: VH and VL only
B5: MPK30-v1 (antibody, V domains shown)
VH: EVQLVESGGGLVKPGGSLRLSCAASGFTISGYYMIWIRQAPGKGLEWISFISASSSYINYADSVRGRFTISRDNGRSTVYLQMNSLRPEDTAVYYCATEQVPSPGPFDLWGQGTLVTVSS
VL: QSVLTQPPSVSGAPGQRVTISCTGTSSNIGAGYDVHWYQQFPGRSPKLLIYRNTNRPSGVPDRFSGSKSGSSASLAIAGLQAEDEADYYCQSYDRSLDGWVFGGGTTLTVL
notes: VH and VL only
B6: MPK99 (antibody, V domains shown)
VH: EVQLVESGGGLVKPGGSLRLSCAASGFTISGYYMIWIRQSPGKGLEWISDISASSSYTDYADSVKGRFTISRDNGQNTVYLQMNSLRAEDTAVYYCATEQVPSPGPFDLWGQGTLVTVSS
VL: QSVVTQPPSVSGAPGLRVTISCSGTSSNIGRGYDVHWYQQFPGQSPKLLIYRNTNRPSGVPDRFSGFKSGSSASLAIAGLQAEDEADYYCQSYDRSLGGWVFGGGTRLIVL
notes: VH and VL only
B7: MPK129 (antibody, V domains shown)
VH: EVQLVESGGGLVKPGGSLRLSCEASGFSLSGYYMIWIRQAPGKGLEWISSISGSGNYIDYADSVKGRFTISRDNGHNTLYLQMNSLRVEDTAVYYCATEQTPSPGPFDHWGQGTLVTVSS
VL: QTVVTQPPSVSGAPGQRVTISCTGTSSNIGTGYDVHWYQQFPGTSPKLLIYRNTNRPSGVPDRFSGSKSGSSASLAIAGLQAEDEADYYCQSYDRSVSGWVFGGGTKLTVL
notes: VH and VL only
B8: MPK141 (antibody, V domains shown)
VH: EVQLVESGGGLVKPGGSLRLSCAASGFTISGYYMTWIRQAPGKGLEWISYISGSSSYTNYADSVKGRFTISRDNGRNSVYLQMNSLRADDTGVYYCAREETPSPGPFDSWGQGILVTVSS
VL: QSVLTQPPSVSGAPGQRIIISCIGSSSNIGTGYDVHWYQQLPGRAPKLLISRNTNRPSGIPDRFSGSKSGTSASLAITGLQADDEADYYCQSYDRGLDGWVFGGGTKLTVL
notes: VH and VL only
B9: MPK86 (antibody, V domains shown)
VH: EVQLVESGGGLVKPGGSLRLSCAASGFSISGYYMIWIRQAPGRGLEWISDISASSTYTDYADSVKGRFTISRDNGQNTVYLQMNNLRADDTALYYCATEQTPSPGPFDLWGQGTLVTVSS
VL: QSVVTQPPSVSGAPGQRVIISCSGRSSNIGAGYDVHWYQHFPGTSPKLLIYRNTNRPSGVPDRFSASTSATSASLAITGLQADDEADYYCQSYDRNLGGWVFGGGTKLTVL
notes: VH and VL only
B10: MPK126 (antibody, V domains shown)
VH: EVQLVESGGGLVKPGGSMRLSCAASGVTLSGYYMIWIRQAPGKGLEWISDISASSTYTDYADSVKGRFTVSRDNSQNTVYLQMNSLRAEDTAVYYCATEQTPSPGPFDLWGQGTLVTVSS
VL: QSVLTQPPSVSGAPGQRVTISCTGSSSNVGAGYDVHWYQQFPGTSPKLLIYRNTNRPSGVPDRFSGFKSGTSASLAITGLEAEDEADYYCQSYDRSLSGWVFGAGTKLTVL
notes: VH and VL only
B11: MPK108 (antibody, V domains shown)
VH: EVQLVESGGGLVRPGQSLRLSCTASGFSISGYFMIWVRQAPGKGLEWISYVSASSTYTNYADSVRGRFTTSRDNGQNSLFLQMDSLTAEDTGVYFCAREQTPSPGPFDSWGQGVLVTVSS
VL: QSVLTQPPSLSGAPGQRITISCTGTSSNIGAGYDVHWYQYLPGTAPKLVIYRNTNRPSGVSGRFSGSKSGTSASLAITGLQTEDEADYYCQSYDKKLDGWVFGGGTKLTVL
notes: VH and VL only
B12: MPK130 (antibody, V domains shown)
VH: EVQLVESGGGLVKPGGSLTLSCEASGFSISGYYMIWVRQAPGKGLEWVSSISASDTYIDYAVSVQGRFTISRHNTKNSLYLQMSSLRVEDTGVYYCTREKVPSPGPFDCWGQGTLVTVSS
VL: QSVLTQPPSVSGAPGQRITISCTGTSSNIGAGYDVHWYQHLPGAAPRLLIYVNTNRPSGVPDRFSGARSGTSASLAITGLQAEDEADYYCQSYDRSLGGWAFGEGTKVTVL
notes: VH and VL only
B13: MPK142-v2 (antibody, V domains shown)
VH: EVQLVESGGGLVEPGGSLRLSCAASGFTISGYGMSWVRQAPGKGLEWVSSISASSSYIYYGDAMKGRITISRDNGWNSMYLQMNSLRTEDTAVYYCATAPIEPPYFDLWGRGTLVTVSS
VL: DIQLTQTPTSLSASVGDRVTFTCRASQNIGFYLNWYQQKPGKAPRLLIYGASNLQSGVPSRFSGSGAGTDFSLTISSLQPEDFATYYCQQSFNTPRTFGQGTKVEIN
notes: VH and VL only
B14: MPK92 (antibody, V domains shown)
VH: EVQLVESGGGLVKPGGSLRLSCEASGISLSGYYMIWIRQAPGKGLEWISSISSSSNYIDYADSVRGRFTISRHNGQNTLYLQMNSLRVEDTAVYFCATEQTPSPGPFELWGQGILVTVSS
VL: QSVLTQPPSVSGAPGQRVTIFCTGTTSNIGTGYDVHWYQQFPGTSPKLLIYRNTNRPSGVPDRFSGSRSGSSASLAIAGLQAEDEADYYCQSFDRSVNGWIFGGGTKVTVL
notes: VH and VL only
B15: MPK10 (antibody, V domains shown)
VH: EVQLVQSGGGLVKPGGSLRLSCAASGFRFSGYFMIWIRQAPGKGLEWISFISGGSSYTNYADSVKGRFTISRDNVQNTLFLDMNSLRAEDTGVYFCATEQVPTPGPFDLWGQGSLVTVSS
VL: QSVLTQPPSVSGVPGQRVIISCTGSSSNIGAGYDVHWYQQFPGRSPTLLIYRNTNRPSGVPDRFSGFQSGSSASLAITGLQAEDEADYYCQSFDRTLDGWAFGGGTKVTVL
notes: VH and VL only
B16: MPK133 (antibody, V domains shown)
VH: QVQLVQSGGGLVKPGGSLRLSCAASEFSFSGYFMIWIRQAPGKGLEWISYISGSSTYTNYADSVKGRFTISRDNAQNTLYLEMNSLRAEDTGVYYCATEQVPSPGPFDLWGQGTLVTVSS
VL: QSVLTQPPSVSGAPGQRVTISCTGSSSNIGAGYDVHWYQQFPGRSPTLLIYRNTNRPSGVPDRFSGSQSGSSASLAITGLQAEDEADYYCQSYDRTLSGWAFGGGTKVTVL
notes: VH and VL only
B17: MPK136 (antibody, V domains shown)
VH: EVQLVESGGGLVKPGGSLRLSCEASGFSLSGYYMIWIRQAPGKGLEWISSISGSGNYINYADSVKGRFTVSRDNGHNTLYLQMNSLRVEDTAVYYCATEQTPSPGPFDHWGQGTLVTVSS
VL: QVQLVQPPSVSGAPGQRVSISCTGTSSNIGTGYDVHWYQQFPGTSPKLLIYRNTNRPSGVPDRFSGSKSGSSASLAIAGLQAEDEADYYCQSYDRSVSGWVFGGGTKLTVL
notes: VH and VL only
B18: MPK9 (antibody, V domains shown)
VH: EVQLVESGGGLVKPGGSLRLSCAASGFTISGYGMSWFRQAPGKGLEWVSSISASSSYIYYADSTKGRFTISRDNGKQSLYLQMNSLRAEDTAVYYCATSPIEPPYFDLWGRGTLVTVSS
VL: QSVLTQPPSVSGAPGQRVTISCTGSSSNIGAGYDVHWYQQLPGKAPKLLIYGNNNRPSGVPDRFSGSNSGASASLAITGLQAEDEADYFCQSYDRRLSGPVFGRGTKLTVL
notes: VH and VL only
B19: MPK73 (antibody, V domains shown)
VH: EVQLVESGGGLVKPGGSLTLSCAASGFSISGYGMNWVRQAPGRGLEWVASISASSTYIYYADSMKGRFTISRDNGKTSLYLQMKSLRAEDTAVYYCARAPIEPPYFDLWGRGTLVTVSS
VL: QSVLTQPPSVSGAPGQRVTISCTGSNSNIGAGYDVHWYQHLPGKAPKVLIYGNNNRPSGVPDRFSGSNSGASASLAISGLQAEDEADYFCQSYDRRLSGPIFGGGTKLTVL
notes: VH and VL only
B20: MPK142-v1 (antibody, V domains shown)
VH: EVQLVESGGGLVEPGGSLRLSCAASGFTISGYGMSWVRQAPGKGLEWVSSISASSSYIYYGDAMKGRITISRDNGWNSMYLQMNSLRTEDTAVYYCATAPIEPPYFDLWGRGTLVTVSS
VL: QSVLTQPPSVSGAPGQRVTISCTGSSSNIGAGYDVHWYQQFPGKAPKVLIYGNNNRPSGVPDRFAASNSGASASLAITGLQAEDEAAYFCQSYDRRLSGPVFGGGTKLTVL
notes: VH and VL only
B21: MPK127 (antibody, V domains shown)
VH: QVQLVISGGGLVKPGGSLRLSCAASGFRIDSFSLNWVRQAPGKGLEWLASVSASSSYIDYRDSVAGRFTISRDNAQNSLYLQMDTLRAEDTAVYYCARTNGYETGSFDVWGQGTLVTVAS
VL: QSVLTQPPSVSGAPGQRVTISCTGSSSNIGAGYDVHWYQQLPGKAPKLLINANNNRPSGVPDRFSGSNSGTSASLAITGLQAEDEADYYCQSYDKTLSGYVFGLGTTVTVL
notes: VH and VL only
B22: MPK102 (antibody, V domains shown)
VH: EVQLVESGGGLVKPRGSLRLSCAASGFTFSGYFMIWIRQAPGKGLEWVSYISGSSTYTNYADSVKGRFTISRDNGRNTLYLQMNSLRADDTAVYYCATEQTPSPGPFDLWGQGTLVTVSS
VL: QSVLTQPPSVSGAPGQRVTISCTGTSSNIGAGYDVHWYQQFPGTSPKLLIFRNTNRPSGVSDRFSGSKSGSSASLAIAGLQAEDESDYYCQSYDRGLDGWVFGGGTRLTVL
notes: VH and VL only

The binders below were run against RSV fusion glycoprotein (RSV-F) (respiratory syncytial virus) (assay: SPR; F protein loaded on streptavidin sensors, mAb in solution).
Method: Binding affinity of mAbs for RSV-F protein, MPV-F D280 protein, and MPV-F N280 F variant protein was assessed using surface plasmon resonance (SPR).

| Binder | Kd |
| --- | --- |
| B1 | 0.001 nM |
| B2 | 0.0056 nM |
| B3 | 0.47 nM |
| B4 | 0.0059 nM |
| B5 | 0.01 nM |
| B6 | 0.15 nM |
| B7 | 0.083 nM |
| B8 | 0.13 nM |
| B9 | 0.001 nM |
| B10 | 0.001 nM |
| B11 | 0.58 nM |
| B12 | 0.016 nM |
| B13 | 16 nM |
| B14 | 0.098 nM |
| B15 | 0.012 nM |
| B16 | 0.001 nM |
| B17 | 0.001 nM |
| B18 | 0.04 nM |
| B19 | 0.012 nM |
| B20 | 100 nM |
| B21 | 1.7 nM |
| B22 | 0.096 nM |
